Results from patent publication US20230295284A1 (published 2023).

B1: LMJ2.4C (VHH)
VHH: QVQLVEAGGGLVQAGGSLRLSCAASGSTFSHSAGGWYRQAPEKQRELVAGIRSDGNINYADSVKDRFTISRDNASNTMYLQMNNLKPEDTAVYVCNIRGSYGNTYYSRWGQGIQVTVSS
modifications: sortase-tagged with biotin in the Western blots ; Purified by a his-tag for BLI and sortase-tagged with biotin in the Western blots. The tag letters are not stated for the free nanobody, so they are left out.
B2: LMJ2.5I (VHH)
VHH: RVQLVETGGGLVQAGGSLRLSCAVSGSTFSHSAGGWYRQAPEKQRELVAGIRSDGNINYADSVKDRFTISRDNASNTMYLQMNNLKPEDTAVYVCNIRGSYGNTYYSRWGQGAQVTVSS
modifications: sortase-tagged with biotin in the Western blots ; Purified by a his-tag for BLI and sortase-tagged with biotin in the Western blots. The tag letters are not stated for the free nanobody, so they are left out.
B3: LMJ2.5H (VHH)
VHH: QVQLVETGGGLVQAGGSLRLSCAVSGSTFSHSAGGWYRQAPEKQRELVAGIRSDGNINYADSVKDRFTISRDNASNTMYLQMNNLKPEDTAVYVCNIRGSYGNTYYSRWGQGTQVTVSS
modifications: sortase-tagged with biotin in the Western blots ; Western blots used the nanobody sortase-tagged with biotin at a terminus. The BLI material was his-tag purified. Tag letters are not stated for the stand-alone nanobody and are left out.
B4: LMJ2.5C (VHH)
VHH: QVQLVETGGGLVQAGGSLRLSCAASGSTFSHSAGGWYRQAPEKQRELVAGVRSDGNINYADSVKDRFTISRDNASNTMYLQMNNLKPEDTAVYVCNIRGSYGNTYYSRWGQGIQVTVSS
modifications: sortase-tagged with biotin in the Western blots ; Purified by a his-tag for BLI and sortase-tagged with biotin in the Western blots. The tag letters are not stated for the free nanobody, so they are left out.
B5: LMJ2.5G (VHH)
VHH: QVQLVETEGGLVQAGGSLRLSCAASGSTFSHSAGGWYRQAPEKQRELVAGIRSDGNINYADSVKDRFTISRDNASNTMYLQMNNLKPEDTAVYVCNIRGSYGNTYYSRWGQGTQVTVSS
modifications: sortase-tagged with biotin in the Western blots ; Western blots used the nanobody sortase-tagged with biotin at a terminus. The BLI material was his-tag purified. Tag letters are not stated for the stand-alone nanobody and are left out.
B6: LMJ2.5J (VHH)
VHH: QVQLVETRGGLVQAGGSLRLSCAVSGSTFSHSAGGWYRQAPEKQRELVAGIGSAGNINYADSVKDRFTISRDNASNTMYLQMNNLKPEDTAVYVCNIRGSYGNTYYSRWGQGTQVTVSS
modifications: sortase-tagged with biotin in the Western blots ; Western blots used the nanobody sortase-tagged with biotin at a terminus. The BLI material was his-tag purified. Tag letters are not stated for the stand-alone nanobody and are left out.
B7: NJB2 (parental nanobody) (VHH)
VHH: QVQLVETGGGLVQAGGSLRLSCAASGSTFSHNAGGWYRQAPEKQRELVAGISSDGNINYADSVKDRFTISRDNASNTMYLQMNNLKPEDTAVYVCNIRGSYGNTYYSRWGQGTQVTVSS
modifications: Purified by a his-tag. Its letters and position are not stated for the free nanobody, so it is left out.
B8: LMJ1.2C (VHH)
VHH: QVQLVETGGGLVQAGGSLRLSCAASGSTFSHSAGGWYRQAPEKQRELVAGIRSDGNINYADSVKDRFTISRDNASNTMYLQMNNLKPEDTAVYVCNIRGSYGNTYYSRWGQGTQVTVSS
modifications: sortase-tagged with biotin in the Western blots ; Purified by a his-tag for BLI and sortase-tagged with biotin in the Western blots. The tag letters are not stated for the free nanobody, so they are left out.
B9: LMJ2.6A (VHH)
VHH: RVQLVETGGGLVQAGGSLRLSCAVSGRTFSHSAGGWYRQAPEKQRELVAGIRSDGNINYADSVKDRFTISRDNASNTMYLQMNNLKPGDTAVYVCNIRGSYGNTYYSRWGQGTQVTVSS
modifications: sortase-tagged with biotin in the Western blots ; Purified by a his-tag for BLI and sortase-tagged with biotin in the Western blots. The tag letters are not stated for the free nanobody, so they are left out.
B10: LMJ1.2G (VHH)
VHH: QVQLVETGGGLVQAGGSLRLSCAASGSTFSHSAGGWYRQAPEKQRELVAGIGSDGNINYADSVKDRFTISRDNASNTMYLQMNNLKPEDTAVYVCNIRGSYGNTYYSRWGQGTQVTVSS
modifications: sortase-tagged with biotin in the Western blots ; Purified by a his-tag for BLI and sortase-tagged with biotin in the Western blots. The tag letters are not stated for the free nanobody, so they are left out.
B11: LMJ1.3J (VHH)
VHH: QVQLVGTGGGLVQAGGSLRLSCAASGSTFSHSAGGWYRQAPEKQRELVAGISSAGNINYADSVKDRFTISRDNASNTMYLQMNNLKPEDTAVYVCNIRGSYGNTYYSRWGQGTQVTVSS
modifications: sortase-tagged with biotin in the Western blots ; Purified by a his-tag for BLI and sortase-tagged with biotin in the Western blots. The tag letters are not stated for the free nanobody, so they are left out.

The binders below were run against FN-EIIIB (assay: BLI).
Sequence of FN-EIIIB (chain, as listed by the source): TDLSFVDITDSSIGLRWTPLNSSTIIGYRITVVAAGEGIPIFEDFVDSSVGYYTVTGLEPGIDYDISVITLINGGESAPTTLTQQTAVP
A Kd of 0.0626 nM was found for B1 in this work.
A Kd of 0.0254 nM was found for B2 in this work.
A Kd of 0.227 nM was found for B3 in this work.
A Kd of 0.0785 nM was found for B4 in this work.
A Kd of 0.166 nM was found for B5 in this work.
A Kd of 0.0622 nM was found for B6 in this work.
A Kd of 1.82 nM was found for B7 in this work.
A Kd of 0.3 nM was found for B8 in this work.
A Kd of 0.344 nM was found for B9 in this work.
A Kd of 0.973 nM was found for B10 in this work.
A Kd of 0.402 nM was found for B11 in this work.
